Measurements published in paper PMC2835468 (Matrix biology : journal of the International Society for …, 2009).

T1: ADAMTS5-2 (human ADAMTS-5 deletion mutant, C-terminal FLAG-tag) (human, UniProt Q9UNA0 262-874)
T1 sequence (looked up): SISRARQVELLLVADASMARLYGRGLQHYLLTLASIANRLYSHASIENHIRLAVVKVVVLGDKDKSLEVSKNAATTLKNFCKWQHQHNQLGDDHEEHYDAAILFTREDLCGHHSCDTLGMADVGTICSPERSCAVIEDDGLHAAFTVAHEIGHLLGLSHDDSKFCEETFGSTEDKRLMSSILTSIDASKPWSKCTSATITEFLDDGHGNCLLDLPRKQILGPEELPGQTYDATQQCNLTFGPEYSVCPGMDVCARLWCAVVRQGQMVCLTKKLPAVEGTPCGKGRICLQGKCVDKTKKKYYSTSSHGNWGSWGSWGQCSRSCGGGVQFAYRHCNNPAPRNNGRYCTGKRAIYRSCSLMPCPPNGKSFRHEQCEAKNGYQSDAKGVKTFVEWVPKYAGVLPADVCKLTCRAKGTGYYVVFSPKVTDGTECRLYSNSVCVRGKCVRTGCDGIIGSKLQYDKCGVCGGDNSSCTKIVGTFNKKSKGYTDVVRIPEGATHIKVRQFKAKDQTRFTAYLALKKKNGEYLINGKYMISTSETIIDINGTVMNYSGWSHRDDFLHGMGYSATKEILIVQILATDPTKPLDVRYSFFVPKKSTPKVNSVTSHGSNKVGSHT

T2: ADAMTS4-2 (human ADAMTS-4 deletion mutant, C-terminal FLAG-tag) (human, UniProt O75173 213-685)
T2 sequence (looked up): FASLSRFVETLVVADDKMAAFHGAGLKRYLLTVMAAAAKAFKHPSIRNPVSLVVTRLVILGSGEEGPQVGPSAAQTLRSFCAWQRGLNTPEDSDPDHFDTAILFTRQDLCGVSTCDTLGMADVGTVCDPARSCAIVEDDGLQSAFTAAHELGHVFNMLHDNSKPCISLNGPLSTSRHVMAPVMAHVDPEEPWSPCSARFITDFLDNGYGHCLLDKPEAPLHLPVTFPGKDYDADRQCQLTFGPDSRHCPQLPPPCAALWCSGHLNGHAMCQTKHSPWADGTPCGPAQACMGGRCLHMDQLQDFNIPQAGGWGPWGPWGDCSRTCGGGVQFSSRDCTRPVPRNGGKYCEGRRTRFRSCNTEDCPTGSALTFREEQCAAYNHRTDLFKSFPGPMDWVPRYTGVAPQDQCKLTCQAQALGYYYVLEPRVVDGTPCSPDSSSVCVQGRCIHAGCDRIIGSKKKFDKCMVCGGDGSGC

T3: Catalytic domain of human MMP-1 (MMP-1cat) (human, UniProt P03956 100-269)
T3 sequence (looked up): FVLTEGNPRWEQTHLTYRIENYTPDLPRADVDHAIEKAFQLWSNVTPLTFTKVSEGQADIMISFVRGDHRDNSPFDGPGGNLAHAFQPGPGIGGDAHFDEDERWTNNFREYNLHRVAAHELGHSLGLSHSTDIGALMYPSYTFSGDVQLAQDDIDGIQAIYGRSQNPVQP


Experiments:
Assay in all cases: enzyme inhibition kinetics
[1] = molecular target: T1, ADAMTS5-2 (human ADAMTS-5 deletion …)
[2] = molecular target: T2, ADAMTS4-2 (human ADAMTS-4 deletion …)
[3] = molecular target: Catalytic domain of human MMP-3 (MMP-3cat) (human, UniProt P08254 100-272)
[4] = molecular target: T3, Catalytic domain of human MMP-1 …

Sequence of Catalytic domain of human MMP-3 (MMP-3cat) (P08254 100-272): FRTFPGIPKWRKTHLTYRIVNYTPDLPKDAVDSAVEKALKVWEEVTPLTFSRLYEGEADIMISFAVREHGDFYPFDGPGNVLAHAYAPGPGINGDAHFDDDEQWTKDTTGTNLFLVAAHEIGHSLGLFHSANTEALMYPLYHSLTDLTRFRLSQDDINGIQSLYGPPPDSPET

| Ki [1] | Ki [2] | Ki [3] | Ki [4] | Binder |
| --- | --- | --- | --- | --- |
| 1.37 nM | 0.2 nM | – | – | Non-glycosylated full-length human TIMP-3, FLAG-tagged, from HEK293 cells treated with tunicamycin (natural protein, UniProt P35625 24-211, looked up) CTCSPSHPQDAFCNSDIVIRAKVVGKKLVKEGPFGTLVYTIKQMKMYRGFTKMPHVQYIHTEASESLCGLKLEVNKYQYLLTGRVYDGKMYTGLCNFVERWDQLTLSQRKGLNYRYHLGCNCKIKSCYYLPCFVTSKNECLWTDMLSNFGYPGYQSKHYACIRQKGGYCSWYRGWAPPDKSIINATDP |
| 0.32 nM | 0.79 nM | 11.1 nM | 0.8 nM | N-terminal domain of human TIMP-3 with C-terminal His-tag, expressed in Escherichia coli and folded in vitro (domain or fragment, UniProt P35625 24-144, looked up) CTCSPSHPQDAFCNSDIVIRAKVVGKKLVKEGPFGTLVYTIKQMKMYRGFTKMPHVQYIHTEASESLCGLKLEVNKYQYLLTGRVYDGKMYTGLCNFVERWDQLTLSQRKGLNYRYHLGCN |
